Laboratory results taken from patent US20100075394A1.

Target: ACP-HA labeled via ACP with Cy3
Assay: mock pull-down on magnetic beads from an equimolar mixture of Cy3-ACP-HA and Cy3-ACP-CaM-PCP; SDS-PAGE and in-gel fluorescence scanning; reference is ACP-CaM-PCP

primary-chloride-derivatized 12CA5 antibody immobilized via covalin on magnetic beads displaying BG
enrichment of ACP-HA over ACP-CaM-PCP: 80 fold
